The assay deals with T1, GLUT1 (Homo sapiens), P11166.
T1 chain: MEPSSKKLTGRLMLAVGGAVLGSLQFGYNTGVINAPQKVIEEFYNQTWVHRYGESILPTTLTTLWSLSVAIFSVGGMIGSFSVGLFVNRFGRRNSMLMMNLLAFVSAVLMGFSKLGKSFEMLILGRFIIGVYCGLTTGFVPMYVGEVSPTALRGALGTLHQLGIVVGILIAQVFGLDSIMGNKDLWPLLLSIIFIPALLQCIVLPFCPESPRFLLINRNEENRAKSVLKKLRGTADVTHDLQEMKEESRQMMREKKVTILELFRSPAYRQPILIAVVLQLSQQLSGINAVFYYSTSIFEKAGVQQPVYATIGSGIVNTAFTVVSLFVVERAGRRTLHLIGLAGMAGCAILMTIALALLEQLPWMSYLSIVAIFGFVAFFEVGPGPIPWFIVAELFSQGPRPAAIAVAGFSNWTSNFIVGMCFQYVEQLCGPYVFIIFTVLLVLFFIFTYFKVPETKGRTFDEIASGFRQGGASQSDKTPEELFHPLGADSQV
The assay can be described thus: ITC. Particulars: PIP2/MSP1E3 nanodisc; remark: other sources report otherwise.

This note sets out measurements from article PMC8464517.

B1: TXNIP, Q9H3M7 (protein)
chain: MVMFKKIKSFEVVFNDPEKVYGSGEKVAGRVIVEVCEVTRVKAVRILACGVAKVLWMQGSQQCKQTSEYLRYEDTLLLEDQPTGENEMVIMRPGNKYEYKFGFELPQGPLGTSFKGKYGCVDYWVKAFLDRPSQPTQETKKNFEVVDLVDVNTPDLMAPVSAKKEKKVSCMFIPDGRVSVSARIDRKGFCEGDEISIHADFENTCSRIVVPKAAIVARHTYLANGQTKVLTQKLSSVRGNHIISGTCASWRGKSLRVQKIRPSILGCNILRVEYSLLIYVSVPGSKKVILDLPLVIGSRSGLSSRTSSMASRTSSEMSWVDLNIPDTPEAPPCYMDVIPEDHRLESPTTPLLDDMDGSQDSPIFMYAPEFKFMPPPTYTEVDPCILNNNVQ
As a reminder, the Kd is the concentration at which binding is half-saturated. A higher Kd goes with lower affinity. As for B1, the Kd worked out at 3.8 µM.
